This data set addresses NSP12 (RNA-dependent RNA polymerase) (SARS-CoV-2, UniProt P0DTD1 P0DTD1:4393-5324). Kind of data set: FP.

B1: Scov2_7431_7555_RNA (ssRNA)
RNA: GGGCGAAAACGCCCCAUUUUAUUAUGUAUGGAAAAGUUAUGUGCAUGUUGUAGACGGUUGUAAUUCAUCAACUUGUAUGAUGUGUUACAAACGUAAUAGAGCAACAAGAGUCGAAUGUACAACUAUUGUUAAUGGUGUU
The molecule B1 displayed a Kd of 17 nM.

For orientation: Kd means the equilibrium constant for the complex coming apart. High values mean lower affinity, low ones higher affinity.

(Values after US20250263697, “COMPOSITIONS AND METHODS OF MODULATING RNA AND PROTEIN INTERACTIONS” (The Regents of the University of California, published 2025).)
